Experiment [1] has as its target T1, His+SUMO-atDjA1 (Arabidopsis thaliana, UniProt Q94AW8 1-420).
T1 sequence (looked up): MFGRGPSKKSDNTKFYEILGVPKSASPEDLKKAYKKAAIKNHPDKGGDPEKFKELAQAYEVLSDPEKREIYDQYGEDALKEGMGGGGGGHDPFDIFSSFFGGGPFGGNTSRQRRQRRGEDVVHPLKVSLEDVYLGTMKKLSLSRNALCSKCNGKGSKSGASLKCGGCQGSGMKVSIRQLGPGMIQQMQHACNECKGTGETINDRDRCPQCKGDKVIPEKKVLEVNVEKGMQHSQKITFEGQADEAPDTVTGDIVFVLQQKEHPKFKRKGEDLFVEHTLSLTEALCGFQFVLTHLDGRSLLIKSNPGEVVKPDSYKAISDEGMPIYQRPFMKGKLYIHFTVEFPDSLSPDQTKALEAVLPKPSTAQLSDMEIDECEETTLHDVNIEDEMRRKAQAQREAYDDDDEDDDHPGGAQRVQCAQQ
The experiment in a line: pull-down.

Experiment [2] addresses T2, His+SUMO-atDjA2 (Arabidopsis thaliana, UniProt P42825 1-419).
T2 sequence (looked up): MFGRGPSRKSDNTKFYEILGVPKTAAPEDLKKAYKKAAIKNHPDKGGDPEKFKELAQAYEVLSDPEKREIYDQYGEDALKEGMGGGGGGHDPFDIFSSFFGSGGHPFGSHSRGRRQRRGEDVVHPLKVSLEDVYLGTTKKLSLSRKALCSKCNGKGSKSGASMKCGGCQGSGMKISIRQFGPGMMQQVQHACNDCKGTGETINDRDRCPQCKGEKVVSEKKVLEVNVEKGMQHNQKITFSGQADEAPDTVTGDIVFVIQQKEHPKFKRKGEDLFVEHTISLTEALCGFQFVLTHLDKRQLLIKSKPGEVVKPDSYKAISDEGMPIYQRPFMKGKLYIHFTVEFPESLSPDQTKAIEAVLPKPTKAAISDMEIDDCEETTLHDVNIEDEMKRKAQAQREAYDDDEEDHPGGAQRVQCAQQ
The experiment in a line: pull-down.

Consider 3 molecules from article doi:10.1101/2024.04.19.590371 (bioRxiv, 2024).

B1: GST-Metaxin (cytosolic domain, aa 1-191) (domain or fragment, Arabidopsis thaliana, UniProt O64471 1-191, looked up)
chain: MEGDQETNVYTLVARKPSFDLPTACPNCLPAYIYLKLAQLPFELAFNSTFPDSDELPYFESDTYVAYNNEDGGVIEKLKKDGIVNLDSQLQSLSDYLSLKALIVSWLEEALTYEIWVGTEGISTSKIYYSDLPWVISKVLFYKQTYLAKNRLGITKENAEQREKQIYKRASEAYEALSTRLGEQKFLFEDR
B1: the binding result in experiment [1] and in experiment [2] was “binds” throughout.

B2: GST-Tom9.2 (cytosolic domain, aa 1-53) (domain or fragment, Arabidopsis thaliana, UniProt Q9FNC9 1-53, looked up)
chain: MAAKRIGAGKSGGGDPNILARISNSEIVSQGRRAAGDAVEVSKKLLRSTGKAA
Take B2: in experiment [1], the binding result is listed as “binds”.

B3: GST-OM64 (cytosolic domain, aa 488-586) (domain or fragment, Arabidopsis thaliana, UniProt F4KCL7 488-586, looked up)
chain: SEVMKEKGNAAYKGKQWNKAVNFYTEAIKLNGANATYYCNRAAAFLELCCFQQAEQDCTKAMLIDKKNVKAYLRRGTARESLVRYKEAAADFRHALVLE
For the molecule B3, the binding result in experiment [2] is “binds”.
